Source: publication PMC11040352, “CD38‐Specific Gallium‐68 Labeled Peptide Radiotracer Enables Pharmacodynamic Monitoring in Multiple Myeloma with PET” (Advanced Science, 2024)
Starred links: 1 amine or outer side, 2 acyl side, 3 side chain; linkers in the order of their positions; H or OH if unused. Positions of bridges follow the written chain, without caps; N, C: chain ends. Primed or numbered codes have the meaning given here. *: point of attachment. NOTA = O=C(O)CN1CCN(CC(=O)O)CCN(CC(=O)*)CC1; TBMB = c1c(C[*:1])cc(C[*:3])cc1C[*:2]; PEG3′ = not defined here

Molecular target: His-Tagged human CD38 (recombinant) (human) (UniProt P28907)
Assay: SPR; Biacore T200, CM5 chip, 25 °C; His-tagged CD38 captured by immobilised anti-His antibody (human about 860 RU, mouse 1360 RU); AJ206 as analyte, 300 × 10^-9 M down to 1.2 × 10^-9 M; PBS-P + 1% DMSO, pH 7.4; 50 µL/min; contact 120 s, dissociation 360 s

{NOTA-PEG3′}-ACVPCADFPIWYC-NH2 (linker 2-5-13 via TBMB) [AJ206]
Kd: 19.1 nM
